Test results as given in US20210047431A1 (DIACCURATE, published 2021).

Key:
[1] = molecular target: T1, recombinant human sPLA2-GIB (mature secreted form of group IB pancreatic phospholipase A2) (human, UniProt P04054 23-148); assay: cell-based or functional assay
[2] = molecular target: T1, recombinant human sPLA2-GIB (mature …); assay: indirect ELISA, coated antigen
Procedure: (§1) Microplate wells were typically coated with 100 ng of recombinant human sPLA2-GIB or pro-sPLA2-GIB in PBS pH 7.5, overnight at 4° C. Sample wells were washed three times with PBS containing 0.05% Tween 20. After final washing, sample wells were treated with blocking solution containing 1% bovine serum albumin (BSA) in PBS buffer for 60 min at room temperature. Following washing with PBS containing 0.05% Tween 20, increasing amounts (10 ng/mL up to 3 μg/mL) of mAb directed against human pro-sPLA2-GIB or sPLA2-GIB were added to antigen-coated wells. and incubated for 120 min at room temperature. Following washing with PBS containing 0.05% Tween 20, the binding of mAb was detected with an HRP-conjugated goat anti-mouse IgG or IgA polyclonal antibody reagent and developed using colorimetric substrate. The dependency of the signals on the […] was analyzed with a 4-parameter fit analysis using Prism™ software (Graph Pad) and reported as EC50.

[3] = molecular target: T2, recombinant human pro-sPLA2-GIB (pro form of group IB pancreatic phospholipase A2) (human, UniProt P04054 16-148); assay: indirect ELISA, coated antigen
T2 construct: also called pro-sPLA2-IB; proPLA2-GIB
Procedure: as §1

[4] = molecular target: T1, recombinant human sPLA2-GIB (mature …); assay: competition ELISA on coated sPLA2-IB; competitor biotinylated 14G9
Procedure: (§2) Epitope mapping of the #14G9, #1C11, #8G11 and #7A10 mAbs was evaluated by competition ELISA. Biotinylated mAbs #14G9, #1C11, #8G11 or #7A10 were added to sPLA2-GIB or pro-sPLA2-GIB coated plates in the presence of an excess of un-biotinylated mAb. Bound mAbs were then detected with Streptavidin-HRP conjugate. Results were expressed as percentage of signal, after subtraction of the autologous competition, with 0% representing maximum competition and 100% no competition (Table 4).

[5] = molecular target: T1, recombinant human sPLA2-GIB (mature …); assay: competition ELISA on coated sPLA2-IB; competitor biotinylated 7A10
Procedure: as §2

[6] = molecular target: T2, recombinant human pro-sPLA2-GIB (pro …); assay: competition ELISA on coated pro-sPLA2-IB; competitor biotinylated 7A10
Procedure: as §2

[7] = molecular target: T2, recombinant human pro-sPLA2-GIB (pro …); assay: competition ELISA on coated pro-sPLA2-IB; competitor biotinylated 8G11
Procedure: as §2

[8] = molecular target: T1, recombinant human sPLA2-GIB (mature …); assay: SPR (BIAcore 2000), mAb captured on anti-mouse IgG, antigen in solution
Procedure: (§3) The affinity constant (KD) of the pro-sPLA2-GIB and sPLA2-GIB binding to the selected antibodies described above were determined by surface kinetics on a real-time biosensor surface plasmon resonance assay (BIAcore™). More specifically, the affinity of the antibodies for human pro-sPLA2-GIB and sPLA2-GIB was measured using a BIAcore® 2000. The antibody was captured on an anti-mouse IgG surface and exposed to various concentrations of recombinant pro-sPLA2-GIB and sPLA2-GIB protein. Kinetic analysis using BlAevaluation™ software was performed to obtain the association and dissociation rate constants.
as §3, with “constants (Table 3).” for “constants.”

[9] = molecular target: T2, recombinant human pro-sPLA2-GIB (pro …); assay: as above
Procedure: as §3
as §3, with “constants (Table 3).” for “constants.”

[10] = molecular target: T1, recombinant human sPLA2-GIB (mature …); assay: competitive ELISA: mAb premixed with serial dilutions of soluble antigen, free mAb read on antigen-coated plate
Procedure: (§4) Binding affinities of the antibodies to pro-sPLA2-GIB and sPLA2-GIB were measured by plate-based competition immunoassay. For the competition ELISA, briefly, constant amounts of antibody at different levels were premixed with serial dilutions of antigen protein, human sPLA2-GIB or pro-sPLA2-GIB, ranging from 0 to 10 μg/ml, and incubated for two hours at room temperature to reach pseudo-binding equilibrium between the antibody and antigen. These solutions were then transferred to 96-well sPLA2-GIB or pro-sPLA2-GIB pre-coated plates to allow the free-antibody in the mixtures to bind to plate-coated sPLA2-GIB or pro-sPLA2-GIB. The plates were typically coated with 30 to 100 ng of human sPLA2-GIB or pro-sPLA2-GIB protein in PBS solution overnight at 4° C. followed by BSA nonspecific blocking. After washing off excess antibody in solution, plate-bound antibodies were detected with an HRP-conjugated goat anti-mouse IgG or IgA polyclonal antibody reagent and developed using colorimetric substrate. The dependency of the signals on the concentrations of antigen in solution was analyzed with a 4-parameter fit analysis using Prism™ software (Graph Pad) and reported as IC50.
(§5) The respective binding affinities of the antibodies to human pro-sPLA2-GIB and human sPLA2-GIB were measured by plate-based competition immunoassay. Briefly, constant amounts of antibody at different levels were premixed with serial dilutions of antigen proteins to reach pseudo-binding equilibrium between the antibody and antigen. These solutions were then transferred to antigen pre-coated plates to allow the free-antibody in the mixtures to bind to plate-coated sPLA2-GIB or pro-sPLA2-GIB. Plate-bound antibodies were detected with an HRP-conjugated polyclonal antibody. Data were fitted with a 4PL logistic non-linear regression model and the relative IC50 values were estimated from the model (Table 2).

[11] = molecular target: T2, recombinant human pro-sPLA2-GIB (pro …); assay: as above
Procedure: as §4, §5

[12] = molecular target: T1, recombinant human sPLA2-GIB (mature …); assay: cell-based or functional assay; remark: listed apart in the source
[13] = molecular target: T1, recombinant human sPLA2-GIB (mature …); assay: competition ELISA on coated sPLA2-IB; competitor biotinylated 1C11
Procedure: as §2

[14] = molecular target: T2, recombinant human pro-sPLA2-GIB (pro …); assay: competition ELISA on coated pro-sPLA2-IB; competitor biotinylated 1C11
Procedure: as §2

[15] = molecular target: T2, recombinant human pro-sPLA2-GIB (pro …); assay: indirect ELISA, coated antigen; indirect ELISA, pro-sPLA2-IB coated on the plate
Procedure: as §1

[16] = molecular target: T2, recombinant human pro-sPLA2-GIB (pro …); assay: SPR (BIAcore 2000), mAb captured on anti-mouse IgG, antigen in solution; SPR, mAb captured, pro-sPLA2-GIB in solution
Procedure: as §3
as §3, with “constants (Table 3).” for “constants.”

[17] = molecular target: T2, recombinant human pro-sPLA2-GIB (pro …); assay: competitive ELISA: mAb premixed with serial dilutions of soluble antigen, free mAb read on antigen-coated plate; competitive ELISA, soluble pro-sPLA2-IB
Procedure: as §4, with “The plates were typically coated with 30 to 100 ng of human sPLA2-GIB or pro-sPLA2-GIB protein in PBS solution overnight at 4° C. followed by BSA nonspecific blocking.” left out
The respective binding affinities of the antibodies to human pro-sPLA2-GIB and human sPLA2-GIB were measured by plate-based competition immunoassay. […] Plate-bound antibodies were detected with an HRP-conjugated polyclonal antibody. […]

T2 sequence (P04054 16-148): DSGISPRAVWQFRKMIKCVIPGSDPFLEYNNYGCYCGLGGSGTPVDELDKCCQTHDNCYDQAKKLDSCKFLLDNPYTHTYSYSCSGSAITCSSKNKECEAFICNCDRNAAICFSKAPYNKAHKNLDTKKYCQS
T1 sequence (P04054 23-148): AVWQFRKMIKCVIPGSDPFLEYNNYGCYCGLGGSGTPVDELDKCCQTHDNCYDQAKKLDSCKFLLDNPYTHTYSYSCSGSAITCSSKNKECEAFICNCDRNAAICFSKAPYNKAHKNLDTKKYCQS

| Binder | Enzymatic Activity Inhibition (% of Control) [1] [%] | EC50 [2] [nM] | EC50 [3] [nM] | percentage of signal [4] [%] | percentage of signal [5] [%] | percentage of signal [6] [%] | percentage of signal [7] [%] | Kd [8] [nM] | koff [8] [s⁻¹] | kon [8] [M⁻¹ s⁻¹] | t1/2 [8] [min] | Kd [9] [nM] | koff [9] [s⁻¹] | kon [9] [M⁻¹ s⁻¹] | t1/2 [9] [min] | IC50 [10] [nM] | IC50 [11] [nM] | percentage of signal [13] [%] | percentage of signal [14] [%] | other results |
| --- | --- | --- | --- | --- | --- | --- | --- | --- | --- | --- | --- | --- | --- | --- | --- | --- | --- | --- | --- | --- |
| #1C11 (antibody, IgG1, V domains shown, also called monoclonal antibody 1C11; #1C11 mAb) VH: EVKLQESGPELVKPGASVKISCKVSGYAFSSFWMNWVKQRPGKGLEWIGRIYPGDGDINYNGKFKGKATLTADKSSSTAYMQLSSLTSEDSAVYFCVRGWAWFPYWGQGTLVTVSA VL: EIVLTQSPAITSASLGQRVTISCSATSSVSYVHWYQQKSGTSPKPWIYEISRLASGVPARFSGSGSGTSYSLTISTMEAEDAAIYYCQSWNFPLLSFGAGTKLELKR | 110 | 3 | 4 | 1440 | 1150 | 314 | 496 | 0.0644 | 0.000309 | 4.79e+06 | 53.9 | 0.151 | 0.000405 | 2.7e+06 | 41.2 | 3.8 | 2.4 |  |  |  |
| #7A10 (antibody, IgG1, V domains shown, also called monoclonal antibody 7A10; #7A10 mAb) VH: QVQLKESGPGLVAPSQSLSITCTVSGFSLTSYGVSWVRQPPGKGLEWLGVIWGDGSTNYHSALISRLSISKDNSKSQVFLKLNSLQTDDTATYYCAKEGGLRRGVYFDYWGQGTTLTVSS VL: DIQMNQSPSSLSASLGDTITITCRASQGISIWLDWYQQKPGNIPKLLIYKASNLHTGVPPRFSGSGSGTDFTLTISSLQPEDIATYYCLQSQSYPLTFGAGTKLELKR | 51 | 77 | 13 | 58 |  |  | 93 | 3.83 | 0.000444 | 118000 | 37.5 | 3.79 | 0.000407 | 110000 | 41 | 5.3 | 4.3 | 19 | 18 |  |

The next lines start with results.

| Enzymatic Activity Inhibition (% of Control) [1] [%] | EC50 [2] [nM] | EC50 [3] [nM] | percentage of signal [4] [%] | percentage of signal [5] [%] | percentage of signal [6] [%] | percentage of signal [7] [%] | Kd [8] [nM] | koff [8] [s⁻¹] | kon [8] [M⁻¹ s⁻¹] | t1/2 [8] [min] | Kd [9] [nM] | koff [9] [s⁻¹] | kon [9] [M⁻¹ s⁻¹] | t1/2 [9] [min] | IC50 [10] [nM] | IC50 [11] [nM] | percentage of signal [13] [%] | percentage of signal [14] [%] | Binder | other results |
| --- | --- | --- | --- | --- | --- | --- | --- | --- | --- | --- | --- | --- | --- | --- | --- | --- | --- | --- | --- | --- |
| 5 | 6 |  |  | 12 | 141 | 73 | 0.338 | 0.000549 | 1.63e+06 | 30.4 |  |  |  |  | 1 |  | 64 | 69 | #14G9 (antibody, IgG1, V domains shown, also called monoclonal antibody 14G9; #14G9 mAb) VH: QVQLQQPGAELVKPGASVKLSCKASGYTFTNYWIHWVKRRPGQGLEWIGNIDPSDTRTHYNQKFKDKATLAVDKSSSTAYMQLSSLTSEDSAVFYCARQTLYYEALDYWGQGTTLTVSS VL: DIVMTQSHKLMSTSVGDRVSITCKASQDVSTAVAWYQEKPGQSPKLLIYWASTRHTGVPNRFTGSRSGTDYTLTISSVQAEDLALYYCQQDYSTPPTFGAGTKLELKR | IC50 of inhibition of sPLA2-GIB enzymatic activity (sPLA2 Activity in U/mL against #14G9 mAb in Log M, 4PL fit) [12]: 2.3 nM; EC50 [15]: 158 nM; Kd [16]: 174 nM; koff [16]: 0.0506 s⁻¹; kon [16]: 301000 M⁻¹ s⁻¹; t1/2 [16]: 0.3 min; IC50 [17]: 109 nM |
| 3 | 22 | 117 | 2 | 53 | 141 | 39 |  |  |  |  |  |  |  |  |  |  | 56 | 18 | #22C6 (antibody, IgG2a, V domains shown) VH: EVQLQESGPGLVKPSQTVSLNCTVTGHSITDDNYYWSWIRLVSGSKLEWIGYITSAGNTDNNPSLKSRISITRDISKNQFFLHLSSVTAEDTATYYCARDSTDGDFYFEKWGQGTTLTVSS VL: EIVLTQSPTTMAASPGEKITITCSVSSSISPNFLHWYQQKPGFSPKLLIFRTSNLASGVPTRFSGSGSGTSYSLTIGTMEAEDVATYYCHQGNSLPLTFGAGTKLELKR |  |
| 5 | 15 | 81 | 17 | 65 | 135 | 64 |  |  |  |  |  |  |  |  |  |  | 61 | 23 | #24B2 (antibody, IgG2a, V domains shown) VH: DVQVQESGPGLVKPSQTVSLNCTVTGHSITDDNYYWSWIRLVSGSKLEWIGYITSSGSTDINPSLKSRISITRDISKNQFFLHLNSVTAEDTATYYCARDSTDGDFYFEKWGQGTTLTVSS VL: DIVLTQSPASLAVSLGQRATISCRASESVDNYGISFMHWYQQKPGQPPKLLIYRASNLESGIPARFSGSGSRTDFTLTINPVETDDVATYYCQQSSRDLFTFGGGTKLEIKR |  |
